This note sets out measurements from PMC7617774.

The target in this experiment is SafA_(Ntd1) (Salmonella enterica). Description: crystal structure.

Turning to SafA_(Ntd1) (domain or fragment), the stoichiometry N (commonly the number of molecules, sites or subunits per partner or assembly) came to 2.
